The target of this test is recombinant protein carbonic anhydrase 12 (R&D Systems) (Homo sapiens (Human), UniProt O43570 25-291, limits assumed).

The values below come from patent US20190276557A1 (APROGEN KIC, published 2019).

Chain of recombinant protein carbonic anhydrase 12 (R&D Systems) (O43570 25-291 limits assumed): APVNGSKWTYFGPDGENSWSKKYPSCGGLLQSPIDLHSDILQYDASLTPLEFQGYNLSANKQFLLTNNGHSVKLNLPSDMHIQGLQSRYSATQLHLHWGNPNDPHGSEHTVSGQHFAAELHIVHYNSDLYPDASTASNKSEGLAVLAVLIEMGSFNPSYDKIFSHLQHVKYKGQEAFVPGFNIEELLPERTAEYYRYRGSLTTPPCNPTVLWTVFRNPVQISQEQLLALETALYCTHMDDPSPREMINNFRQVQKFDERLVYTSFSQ

B1: clone ID 1 (phage displayed scFv) (scFv)
chain: EVQLVESGGGLVQPGGSLRLSCAASGYSYTDYNIYWVRQAPGKGLEWVGYIDPANGDTTYNQKFKGRATISVDKSKNTAYLQMNSLRAEDTAVYYCSRPIYYGAYWYFDVWGQGTLVTVSSDIQMTQSPSSLSASVGDRVTITCRASSPVTYMHWYQQKPGKAPKPWIYATSSLAPGVPSRFSGSGSGTDFTLTISSLQPEDFATYYCQQWSSNPLTFGQGTKVEIK
As to B1, the “ELISA signal relative to the 4B4 chimeric antibody” value was found to be 1.5 times.
